From paper PMC3265611

Molecular target: T1, Flag-yTdp1 H432N (Saccharomyces cerevisiae, UniProt P38319 1-544, H432N)
T1 sequence: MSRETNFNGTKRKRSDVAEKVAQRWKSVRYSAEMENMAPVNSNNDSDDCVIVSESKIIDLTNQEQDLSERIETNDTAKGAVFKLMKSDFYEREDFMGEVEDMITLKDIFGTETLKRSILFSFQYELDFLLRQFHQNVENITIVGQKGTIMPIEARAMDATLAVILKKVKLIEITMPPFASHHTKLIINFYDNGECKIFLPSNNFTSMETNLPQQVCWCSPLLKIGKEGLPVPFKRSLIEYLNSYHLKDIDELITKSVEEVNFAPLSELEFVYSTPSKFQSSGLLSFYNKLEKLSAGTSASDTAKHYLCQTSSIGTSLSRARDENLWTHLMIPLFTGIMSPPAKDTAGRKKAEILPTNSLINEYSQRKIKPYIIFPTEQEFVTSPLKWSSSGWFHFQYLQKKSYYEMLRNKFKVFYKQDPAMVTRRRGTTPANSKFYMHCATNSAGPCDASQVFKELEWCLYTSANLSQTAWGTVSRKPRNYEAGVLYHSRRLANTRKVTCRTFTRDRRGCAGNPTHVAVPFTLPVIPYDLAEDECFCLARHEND
Assay: EMSA

GATCTAAAAGACTT (ssDNA, 3' phosphotyrosine) [3'-pY 14-mer substrate]
binding result: no binding
